Test results taken from patent US20170114412A1.

Biological target: Robo2, human, full-length, non-tagged (human) (UniProt Q9HCK4)
Assay: cell-based or functional assay

Robo2, human, full-length, non-tagged (human), sequence (Q9HCK4 22-1378 limits assumed, form in doubt): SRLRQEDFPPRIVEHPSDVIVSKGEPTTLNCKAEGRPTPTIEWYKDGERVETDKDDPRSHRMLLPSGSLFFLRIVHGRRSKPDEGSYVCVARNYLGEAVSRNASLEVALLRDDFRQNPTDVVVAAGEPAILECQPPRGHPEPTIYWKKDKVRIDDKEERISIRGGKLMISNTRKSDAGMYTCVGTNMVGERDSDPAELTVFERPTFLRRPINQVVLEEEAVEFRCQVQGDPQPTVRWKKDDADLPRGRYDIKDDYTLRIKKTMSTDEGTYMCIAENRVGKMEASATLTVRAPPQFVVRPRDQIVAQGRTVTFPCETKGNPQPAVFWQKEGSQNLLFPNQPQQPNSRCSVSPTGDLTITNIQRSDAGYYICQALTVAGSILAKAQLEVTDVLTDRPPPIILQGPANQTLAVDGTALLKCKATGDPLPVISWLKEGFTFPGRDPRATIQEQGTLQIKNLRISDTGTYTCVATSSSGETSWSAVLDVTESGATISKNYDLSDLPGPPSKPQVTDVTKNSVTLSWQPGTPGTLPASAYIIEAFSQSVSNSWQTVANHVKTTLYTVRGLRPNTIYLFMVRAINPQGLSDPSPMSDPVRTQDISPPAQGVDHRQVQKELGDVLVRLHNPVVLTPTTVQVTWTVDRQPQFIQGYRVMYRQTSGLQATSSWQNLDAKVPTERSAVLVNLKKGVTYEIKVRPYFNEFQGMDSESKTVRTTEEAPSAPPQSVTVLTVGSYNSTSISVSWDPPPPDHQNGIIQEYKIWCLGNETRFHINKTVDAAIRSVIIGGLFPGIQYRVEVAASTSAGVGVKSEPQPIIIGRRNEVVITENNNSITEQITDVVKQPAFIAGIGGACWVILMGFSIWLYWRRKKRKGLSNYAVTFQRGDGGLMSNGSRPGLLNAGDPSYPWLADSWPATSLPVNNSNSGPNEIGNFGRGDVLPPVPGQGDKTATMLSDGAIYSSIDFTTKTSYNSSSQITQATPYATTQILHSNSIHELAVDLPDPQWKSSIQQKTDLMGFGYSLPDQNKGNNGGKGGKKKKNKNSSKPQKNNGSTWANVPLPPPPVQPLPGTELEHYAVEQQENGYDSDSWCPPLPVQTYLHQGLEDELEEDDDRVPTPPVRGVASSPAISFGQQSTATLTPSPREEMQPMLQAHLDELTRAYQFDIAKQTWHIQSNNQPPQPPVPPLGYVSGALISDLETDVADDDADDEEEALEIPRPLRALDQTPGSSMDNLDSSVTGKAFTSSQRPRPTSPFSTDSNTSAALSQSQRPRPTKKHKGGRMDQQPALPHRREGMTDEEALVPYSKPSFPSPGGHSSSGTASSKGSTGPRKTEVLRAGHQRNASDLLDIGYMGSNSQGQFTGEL

percentage of CD16/7-NCD clustered HEK cells with F-actin tails (control medium without Slit2: ~80%): 40%
Substance: Slit2 (myc-tagged), in conditioned medium of stably transfected cells (ligand)
